Our source for the abundance fitness values is the Human Domainome abundance scans (Beltran et al. 2025).

B1: Tyrosine-protein kinase BTK, residues 215 to 273; numbered along this chain, Q06187 (parent)
chain: ELKKVVALYDYMPMNANDLQLRKGDEYFILEESNLPWWRARDKNGQEGYIPSNYVTEAE

± gives the uncertainty stated by the source.

This data set covers variants of B1. The data set can be described thus: abundance fitness (aPCA) (normalised: wild type 0, dead -1); higher = more abundant; growth selection in yeast, the domain comes from the species named. Particulars: Homo sapiens.
As to Q46M, the abundance fitness is -0.053 ± 0.044.
The result for Q46I reads 0.047 ± 0.061; that for Q46A, 0.014 ± 0.051.
Consider Q46C, for which the abundance fitness came out at 0.029 ± 0.055.
Turning to Q46N, the abundance fitness amounted to 0.007 ± 0.075.
Q46E: the abundance fitness is -0.005 ± 0.073.
Consider Q46V, for which the abundance fitness came to 0.044 ± 0.037.
The result for Q46G reads -0.036 ± 0.045; that for N53A, -0.005 ± 0.044.
As to N53V, the abundance fitness was -0.004 ± 0.038.
Take N53L: the abundance fitness was -0.099 ± 0.037.
As for N53H, the abundance fitness is -0.123 ± 0.11.
The result for N53K reads -0.025 ± 0.052.
The result for N53Q reads -0.041 ± 0.067.
As for N53W, the abundance fitness was -0.137 ± 0.054.
The result for M14A reads 0.051 ± 0.039; that for M14W, -0.129 ± 0.042; that for M14I, -0.049 ± 0.049.
The result for M14F reads 0.022 ± 0.044.
On to M14S, for which the abundance fitness is -0.001 ± 0.031.
Take M14R: the abundance fitness stood at 0.051 ± 0.035.
As to M14V, the abundance fitness is 0.026 ± 0.032.
As to M14D, the abundance fitness is -0.013 ± 0.076.
For the variant L30W, the abundance fitness is -0.147 ± 0.036.
With L30C, the abundance fitness is -0.207 ± 0.061.
For the variant L30P, the abundance fitness is -0.365 ± 0.052.
Take L30D: the abundance fitness was -0.397 ± 0.12.
The result for L30N reads -0.346 ± 0.08; that for L30Y, -0.056 ± 0.061; that for L30G, -0.398 ± 0.046.
The result for L30M reads -0.087 ± 0.052; that for R39A, -0.179 ± 0.043.
The result for R39H reads -0.116 ± 0.11; that for R39G, -0.36 ± 0.036.
Regarding R39S, the abundance fitness is -0.089 ± 0.039.
The result for R39L reads -0.062 ± 0.038; that for R39C, -0.181 ± 0.054.
The result for Y49T reads -0.019 ± 0.05; that for Y49A, -0.037 ± 0.049; that for Y49S, -0.046 ± 0.042.
The result for Y49D reads -0.032 ± 0.065; that for Y49R, 0.04 ± 0.036.
With N44C, the abundance fitness is -0.019 ± 0.076.
For the variant N44L, the abundance fitness is -0.023 ± 0.042.
The result for N44F reads -0.026 ± 0.051; that for N44I, 0.036 ± 0.099; that for N44V, -0.054 ± 0.049.
Regarding N44H, the abundance fitness was -0.063 ± 0.072.
As for L35A, the abundance fitness is -0.08 ± 0.057.
Take L35F: the abundance fitness worked out at 0.012 ± 0.058.
The result for L35V reads -0.017 ± 0.039.
Regarding L35I, the abundance fitness worked out at 0.005 ± 0.065.
The result for R41F reads -0.142 ± 0.064; that for R41S, -0.108 ± 0.039.
With R41T, the abundance fitness was -0.097 ± 0.04.
Regarding R41V, the abundance fitness is -0.132 ± 0.046.
The result for Y9F reads 0.012 ± 0.05; that for Y9P, -0.663 ± 0.054.
The result for Y9V reads 0.031 ± 0.028.
Y9D: the abundance fitness is -0.007 ± 0.061.
As to Y9R, the abundance fitness amounted to 0.057 ± 0.031.
The result for Y9Q reads 0.098 ± 0.051; that for Y9S, 0.053 ± 0.031; that for D10N, -0.102 ± 0.049.
Turning to K43C, the abundance fitness was -0.033 ± 0.056.
The result for K43H reads -0.026 ± 0.086; that for K43S, -0.016 ± 0.043.
For the variant K43G, the abundance fitness came to 0.004 ± 0.029.
Regarding K43L, the abundance fitness was -0.029 ± 0.045.
The result for K43P reads -0.098 ± 0.061; that for K43T, -0.016 ± 0.049.
The result for V6R reads -0.093 ± 0.026; that for V6S, -0.19 ± 0.026; that for V6H, -0.154 ± 0.033.
Turning to G45L, the abundance fitness is -0.08 ± 0.038.
In the case of G45N, the abundance fitness amounted to 0.008 ± 0.093.
As to G45D, the abundance fitness was -0.057 ± 0.065.
E32V: the abundance fitness was 0.014 ± 0.053.
The result for E32N reads -0.055 ± 0.11; that for E32H, -0.114 ± 0.079.
The result for E32I reads -0.202 ± 0.12; that for K3N, -0.112 ± 0.056; that for K3T, -0.117 ± 0.062.
Take K3P: the abundance fitness was -0.234 ± 0.064.
Turning to K3D, the abundance fitness is -0.22 ± 0.08.
As to V5N, the abundance fitness is -0.839 ± 0.069.
For V5C, the abundance fitness was -0.213 ± 0.043.
Turning to V5I, the abundance fitness was -0.189 ± 0.035.
As for V5Y, the abundance fitness is -0.113 ± 0.054.
The result for V5M reads -0.134 ± 0.041; that for T56R, 0.012 ± 0.037; that for T56G, 0.08 ± 0.055.
As for T56P, the abundance fitness was -0.733 ± 0.07.
Consider N17I, for which the abundance fitness was -0.187 ± 0.075.
As to N17R, the abundance fitness was -0.001 ± 0.033.
For N17P, the abundance fitness is -0.123 ± 0.045.
In the case of N17V, the abundance fitness was -0.068 ± 0.031.
The result for N17D reads -0.011 ± 0.067.
The result for N17Q reads 0.033 ± 0.044.
As for N17W, the abundance fitness is -0.115 ± 0.034.
For the variant L8P, the abundance fitness was -0.657 ± 0.05.
L8D: the abundance fitness was -0.137 ± 0.055.
Take L8K: the abundance fitness was -0.003 ± 0.052.
The result for L8N reads -0.118 ± 0.077; that for L8C, -0.04 ± 0.041; that for L8S, -0.107 ± 0.035.
The result for L8M reads -0.014 ± 0.049; that for L8R, -0.017 ± 0.028; that for L8T, -0.019 ± 0.04.
D25M: the abundance fitness was -0.005 ± 0.041.
The result for D25G reads -0.073 ± 0.037; that for D25A, -0.046 ± 0.036; that for D25Q, -0.013 ± 0.049.
For D25R, the abundance fitness is -0.068 ± 0.033.
For the variant Y54D, the abundance fitness was -0.562 ± 0.094.
The result for Y54I reads -0.228 ± 0.075; that for Y54P, -0.93 ± 0.099.
With Y54C, the abundance fitness is -0.037 ± 0.05.
The result for Y54T reads -0.235 ± 0.059.
The result for Y54H reads -0.009 ± 0.066; that for E47T, -0.061 ± 0.042; that for E47H, -0.219 ± 0.07.
The result for E47G reads -0.451 ± 0.05.
E47M: the abundance fitness was -0.156 ± 0.05.
E47R: the abundance fitness was -0.244 ± 0.036.
With E47W, the abundance fitness was -0.104 ± 0.044.
The result for L21A reads -0.671 ± 0.057.
The result for L21C reads -0.349 ± 0.068; that for L21P, -0.724 ± 0.082.
Consider L21N, for which the abundance fitness is -0.806 ± 0.22.
The result for L21T reads -0.523 ± 0.049.
Consider L21V, for which the abundance fitness was -0.079 ± 0.035.
As to F28Q, the abundance fitness is -0.069 ± 0.079.
The result for F28Y reads -0.068 ± 0.063; that for F28L, -0.004 ± 0.038; that for F28M, 0.017 ± 0.054.
The result for F28H reads -0.07 ± 0.13; that for F28I, -0.021 ± 0.052; that for F28C, -0.096 ± 0.055.
E57V: the abundance fitness is 0.03 ± 0.044.
The result for E57F reads -0.026 ± 0.063.
Consider E57A, for which the abundance fitness was -0.025 ± 0.042.
The result for E57W reads -0.051 ± 0.042; that for E57R, -0.065 ± 0.033.
As for I29S, the abundance fitness was -0.544 ± 0.045.
The result for I29V reads -0.002 ± 0.038; that for I29N, -0.698 ± 0.1.
Consider I29L, for which the abundance fitness is -0.008 ± 0.03.
Turning to I29R, the abundance fitness is -0.436 ± 0.037.
Turning to I29T, the abundance fitness is -0.212 ± 0.056.
Turning to W38A, the abundance fitness was -0.017 ± 0.061.
The result for W38V reads 0.022 ± 0.035; that for W38S, 0.042 ± 0.032; that for W38D, -0.157 ± 0.093.
Regarding P36C, the abundance fitness is -0.072 ± 0.049.
The result for P36V reads -0.077 ± 0.055; that for P36T, -0.1 ± 0.058; that for P36N, -0.075 ± 0.071.
The result for P36D reads -0.013 ± 0.065; that for P36R, -0.029 ± 0.032; that for K4G, -0.357 ± 0.035.
For K4Y, the abundance fitness is -0.285 ± 0.06.
The result for K4A reads -0.168 ± 0.048; that for K4T, -0.036 ± 0.046; that for K4D, -0.287 ± 0.17.
With K4C, the abundance fitness is -0.225 ± 0.072.
With K4I, the abundance fitness was -0.033 ± 0.098.
